In data set [1] the target is T1, His14-MBP-METTL8 (Homo sapiens, UniProt B3KW44 1-407).
T1 sequence: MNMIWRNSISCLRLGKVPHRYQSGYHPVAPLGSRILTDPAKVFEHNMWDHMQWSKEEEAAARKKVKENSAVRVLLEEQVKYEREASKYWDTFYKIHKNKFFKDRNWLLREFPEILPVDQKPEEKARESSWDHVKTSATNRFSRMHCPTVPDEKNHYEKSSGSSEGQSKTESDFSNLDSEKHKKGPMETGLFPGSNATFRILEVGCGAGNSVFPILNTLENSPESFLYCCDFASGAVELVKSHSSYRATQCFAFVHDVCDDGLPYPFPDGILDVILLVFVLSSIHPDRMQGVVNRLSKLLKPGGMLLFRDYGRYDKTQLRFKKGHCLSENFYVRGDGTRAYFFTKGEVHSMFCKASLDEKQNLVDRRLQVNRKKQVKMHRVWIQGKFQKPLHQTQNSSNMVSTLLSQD
Briefly: fluorescence anisotropy; affinity similar to ASLs; Kd only in figure; 30 mM phosphate pH 7.3, 200 mM KCl, 20 nM labelled oligonucleotide, 0-2 uM protein, 5 min at room temperature, measured at 22 C. Conditions: protein: recombinant; tags: N-terminal His14-MBP; label: fluorescein (5' click per Methods); single strand. In general terms: Polarisation of emitted light reports the rotation of a fluorescent probe.

Data set [2] deals with T1, His14-MBP-METTL8. Briefly: fluorescence anisotropy; high affinity; Kd only in figure; 30 mM phosphate pH 7.3, 200 mM KCl, 20 nM labelled oligonucleotide, 0-2 uM protein, 5 min at room temperature, measured at 22 C. Conditions: protein: recombinant; tags: N-terminal His14-MBP; label: fluorescein (5' click per Methods); hairpin.
The target of data set [3] is T1, His14-MBP-METTL8. Briefly: fluorescence anisotropy; high affinity; lower than i6A37 ASL; Kd only in figure; 30 mM phosphate pH 7.3, 200 mM KCl, 20 nM labelled oligonucleotide, 0-2 uM protein, 5 min at room temperature, measured at 22 C. The conditions noted are these: protein: recombinant; tags: N-terminal His14-MBP; label: fluorescein (5' hexynyl/6FAM azide click); hairpin.

Data set [4] has as its target T1, His14-MBP-METTL8. Briefly: fluorescence anisotropy; up to 2 uM protein; 30 mM phosphate pH 7.3, 200 mM KCl, 20 nM labelled oligonucleotide, 0-2 uM protein, 5 min at room temperature, measured at 22 C. Conditions: protein: recombinant; tags: N-terminal His14-MBP; label: 5' fluorescein.
For data set [5], the target named is T1, His14-MBP-METTL8. The data set is described as follows: fluorescence anisotropy; 30 mM phosphate pH 7.3, 200 mM KCl, 20 nM labelled oligonucleotide, 0-2 uM protein, 5 min at room temperature, measured at 22 C. Conditions: protein: recombinant; tags: N-terminal His14-MBP; label: 5' fluorescein; hairpin.
Data set [6] concerns the target T1, His14-MBP-METTL8. The data set is described as above. The conditions noted are these: protein: recombinant; tags: N-terminal His14-MBP; label: fluorescein (5' click per Methods); hairpin.

With GACAUACUGACCCUUCAAAUA (ssRNA) [Unstructured RNA 2], the binding result with His14-MBP-METTL8 [1] is reported as “binds”.
As to UCGGGCCCAUACCCCGA (structured_RNA) [mt-tRNAMet ASL], the binding result with His14-MBP-METTL8 [2] is “binds”.
For GUUGGCUUGAAACCAGCU (structured_RNA) [mt-tRNASer(UCN) ASL unmodified], the binding result with His14-MBP-METTL8 [3] is listed as “binds”.
Consider GATGTGCAGCTGCACATC (ssDNA) [DNA oligonucleotide], for which the binding result with His14-MBP-METTL8 [4] was “no binding”.
For GUUGGCUUGAAACCAGCU (structured_RNA, i6A at strand position 11 (A37)) [mt-tRNASer(UCN) i6A37 ASL], in the data set with His14-MBP-METTL8 [5], the Kd came out at 200 nM.
Consider GUAAAAGUCGUAACAAAGGU (ssRNA) [Unstructured RNA R420], for which the binding result with His14-MBP-METTL8 [1] is “binds”.
For GUUGGCUUGAAACCAGCU (structured_RNA, m3C at strand position 6 (C32); i6A at strand position 11 (A37)) [mt-tRNASer(UCN) m3C32 i6A37 ASL], the binding signal with His14-MBP-METTL8 [6] was ~2.5 fold weaker than i6A37 ASL (N6).

The term Kd denotes the constant that tells how readily two partners part at equilibrium.

(Values after PMC8752778, “The RNA methyltransferase METTL8 installs m3C32 in mitochondrial tRNAsThr/Ser(UCN) to optimise tRNA structure and mitochondrial translation”.)
